Assays:
inactive ERK2 = inactive ERK2 (UniProt P63086); assay: pull-down; 9 µg active phosphorylated (without or with 1 mM ATP) or inactive ERK2 covalently attached to CNBr-activated Sepharose, 3 µg purified arrestin in 60 µl of 50 mM Tris-HCl pH 7.4, 100 mM KCl, 1 mM EGTA, 1 mM DTT, 20 min at 30°C; two washes; bound arrestin quantified by Western blot
[1] = biological target: constitutively active MEK1, Q02750
[2] = biological target: T1, active ERK2 phosphorylated at Thr183 and Tyr185 (PP-ERK2), P63086; assay: pull-down on ERK2-Sepharose (CNBr-activated Sepharose with covalently attached ERK2), bound arrestin quantified by Western blot; conditions: chain shown with the change, 9 µg immobilised ERK2, 3 µg arrestin in 60 µl, 50 mM Tris-HCl, pH 7.4, 100 mM KCl, 1 mM EGTA, 1 mM DTT, 20 min at 30°C, read off a plot
T1 chain: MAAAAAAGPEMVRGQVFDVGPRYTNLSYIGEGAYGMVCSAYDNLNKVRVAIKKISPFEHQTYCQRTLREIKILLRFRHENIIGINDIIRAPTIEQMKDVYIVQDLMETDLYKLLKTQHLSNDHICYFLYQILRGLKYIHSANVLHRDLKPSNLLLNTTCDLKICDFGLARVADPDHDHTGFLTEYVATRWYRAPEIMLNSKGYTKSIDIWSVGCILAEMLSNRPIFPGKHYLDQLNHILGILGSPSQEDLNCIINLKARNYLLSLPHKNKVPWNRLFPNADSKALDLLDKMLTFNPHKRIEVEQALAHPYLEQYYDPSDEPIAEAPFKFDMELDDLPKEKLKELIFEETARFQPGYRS

inactive ERK2, P63086 = biological target: T2, inactive ERK2, P63086; assay: as above; conditions: chain shown with the change; no ATP; 9 µg immobilised ERK2, 3 µg arrestin in 60 µl; 50 mM Tris-HCl, pH 7.4, 100 mM KCl, 1 mM EGTA, 1 mM DTT; 20 min at 30°C; parent: est. 1.6; read off a plot
T2 chain: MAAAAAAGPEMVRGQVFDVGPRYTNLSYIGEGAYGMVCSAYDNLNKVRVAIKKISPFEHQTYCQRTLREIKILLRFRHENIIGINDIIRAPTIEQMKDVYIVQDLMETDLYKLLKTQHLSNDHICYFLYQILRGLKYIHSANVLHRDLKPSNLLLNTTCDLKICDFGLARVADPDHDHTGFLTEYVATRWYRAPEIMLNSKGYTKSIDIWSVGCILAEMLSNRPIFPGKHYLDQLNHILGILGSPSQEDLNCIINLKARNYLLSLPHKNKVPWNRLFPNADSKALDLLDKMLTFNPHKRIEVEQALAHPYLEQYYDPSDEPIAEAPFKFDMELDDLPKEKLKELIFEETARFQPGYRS

## arrestin-2 (from UniProt P17870 1-418) (natural protein)
Inactive ERK2
  binding to inactive ERK2 as percent of that to the active form: 33%

B1: arrestin-3, P32120 1-420 (natural protein)
chain: MGEKPGTRVFKKSSPNCKLTVYLGKRDFVDHLDKVDPVDGVVLVDPDYLKDRKVFVTLTCAFRYGREDLDVLGLSFRKDLFIANYQAFPPTPNPPRPPTRLQERLLRKLGQHAHPFFFTIPQNLPCSVTLQPGPEDTGKACGVDFEIRAFCAKSLEEKSHKRNSVRLVIRKVQFAPEKPGPQPSAETTRHFLMSDRSLHLEASLDKELYYHGEPLNVNVHVTNNSTKTVKKIKVSVRQYADICLFSTAQYKCPVAQVEQDDQVSPSSTFCKVYTITPLLSNNREKRGLALDGKLKHEDTNLASSTIVKEGANKEVLGILVSYRVKVKLVVSRGGDVSVELPFVLMHPKPHDHIALPRPQSAATHPPTLLPSAVPETDAPVDTNLIEFETNYATDDDIVFEDFARLRLKGLKDEDYDDQFC
[1]
  increase of ERK2 phosphorylation (32P incorporation) by purified MEK1 in the presence of 4.4 pmol arrestin-3, against no arrestin: 41%

B2: arrestin-2, P17870 3A (protein)
chain: MGDKGTRVFKKASPNGKLTVYLGKRDFVDHIDLVEPVDGVVLVDPEYLKERRVYVTLTCAFRYGREDLDVLGLTFRKDLFVANVQSFPPAPEDKKPLTRLQERLIKKLGEHAYPFTFEIPPNLPCSVTLQPGPEDTGKACGVDYEVKAFCAENLEEKIHKRNSVRLVIRKVQYAPERPGPQPTAETTRQFLMSDKPLHLEASLDKEIYYHGEPISVNVHVTNNTNKTVKKIKISVRQYADICLFNTAQYKCPVAMEEADDTVAPSSTFCKVYTLTPFLANNREKRGLALDGKLKHEDTNLASSTLLREGANREILGIIVSYKVKVKLVVSRGGLLGDLASSDVAVELPFTLMHPKPKEEPPHREVPEHETPVDTNLIELDTNDDDAAAEDFARQRLKGMKDDKEEEEDGTGSPRLNDR
[2]; no ATP, parent: est. 4.6
  response: 1.4 pmol
[2]; with 1 mM ATP, parent: est. 3.0
  response: 1.7 pmol
Inactive ERK2, P63086
  response: 0.9 pmol

B3: arrestin-2, P17870 1-418 (natural protein)
chain: MGDKGTRVFKKASPNGKLTVYLGKRDFVDHIDLVEPVDGVVLVDPEYLKERRVYVTLTCAFRYGREDLDVLGLTFRKDLFVANVQSFPPAPEDKKPLTRLQERLIKKLGEHAYPFTFEIPPNLPCSVTLQPGPEDTGKACGVDYEVKAFCAENLEEKIHKRNSVRLVIRKVQYAPERPGPQPTAETTRQFLMSDKPLHLEASLDKEIYYHGEPISVNVHVTNNTNKTVKKIKISVRQYADICLFNTAQYKCPVAMEEADDTVAPSSTFCKVYTLTPFLANNREKRGLALDGKLKHEDTNLASSTLLREGANREILGIIVSYKVKVKLVVSRGGLLGDLASSDVAVELPFTLMHPKPKEEPPHREVPEHETPVDTNLIELDTNDDDIVFEDFARQRLKGMKDDKEEEEDGTGSPRLNDR
[1]
  increase of ERK2 phosphorylation (32P incorporation) by purified MEK1 in the presence of 4.4 pmol arrestin-2, against no arrestin: 33%
